From publication PMC10397247 come the findings set out here.

The target of one test is T1, 4H932-bN.
T1 chain: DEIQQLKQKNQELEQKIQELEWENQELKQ
Nature of the test: two-hybrid library CCNG1.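 Note: natural log of median RNA to DNA barcode read ratio; higher means stronger binding.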

The target of another test is T2, 4H796-bN.
T2 chain: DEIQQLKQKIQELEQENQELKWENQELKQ
Nature of the test: two-hybrid library CCNG1.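 Note: natural log of median RNA to DNA barcode read ratio; higher means stronger binding.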

The target in the next test is T3, 4H949-bN.
T3 chain: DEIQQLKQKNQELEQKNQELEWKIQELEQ
The test can be described thus: two-hybrid library CCNG1.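 Note: natural log of median RNA to DNA barcode read ratio; higher means stronger binding.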

A further test concerns the target T4, 4H3364-bN.
T4 chain: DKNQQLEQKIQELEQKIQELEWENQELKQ
Nature of the test: two-hybrid library CCNG1.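 Note: natural log of median RNA to DNA barcode read ratio; higher means stronger binding.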

The next test addresses T5, 4H56-bN.
T5 chain: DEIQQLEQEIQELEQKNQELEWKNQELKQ
The test can be described thus: two-hybrid library CCNG1.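 Note: natural log of median RNA to DNA barcode read ratio; higher means stronger binding.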

The target in another test is T6, O5-bA.
T6 chain: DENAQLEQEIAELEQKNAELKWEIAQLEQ
The test can be described thus: two-hybrid library CCNG1.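 Note: natural log of median RNA to DNA barcode read ratio; higher means stronger binding.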

In a further test the target is T7, 4H349-bN.
T7 chain: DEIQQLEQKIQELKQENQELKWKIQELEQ
Nature of the test: two-hybrid library CCNG1.

The target of the next test is T8, 4H3381-bN.
T8 chain: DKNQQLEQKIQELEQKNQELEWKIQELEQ
Nature of the test: two-hybrid library CCNG1.

Another test addresses T9, 4H730-bN.
T9 chain: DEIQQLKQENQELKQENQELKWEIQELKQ
The test can be described thus: two-hybrid library CCNG1.

Another test concerns the target T10, 4H717-AA.
T10 chain: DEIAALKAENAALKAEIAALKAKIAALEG
The test can be described thus: two-hybrid library CCmax. Particulars: mean of both orientations.

The next test deals with T11, 4H687-AA.
T11 chain: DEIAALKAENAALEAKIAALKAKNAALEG
Nature of the test: two-hybrid library CCmax.

The next test deals with T12, 4H883-AA.
T12 chain: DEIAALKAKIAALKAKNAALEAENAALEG
The test can be described thus: two-hybrid library CCmax. To be noted: mean of both orientations.

The target in the next test is T13, 4H918-AA.
T13 chain: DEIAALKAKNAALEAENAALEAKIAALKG
The test can be described thus: two-hybrid library CCmax. To be noted: mean of both orientations.

In the next test the target is T14, 4H967-AA.
T14 chain: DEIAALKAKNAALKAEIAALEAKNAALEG
The test can be described thus: two-hybrid library CCmax. Particulars: mean of both orientations.

For the next test, the target named is T15, 4H953-AA.
T15 chain: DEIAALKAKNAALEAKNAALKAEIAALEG
The test can be described thus: two-hybrid library CCmax. Particulars: mean of both orientations.

Another test concerns the target T16, 4H797-AA.
T16 chain: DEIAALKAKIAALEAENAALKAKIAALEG
The test can be described thus: two-hybrid library CCmax.

A further test deals with T17, P9bH1.
T17 chain: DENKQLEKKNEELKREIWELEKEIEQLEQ
The test can be described thus: two-hybrid library CCNG1.

As to DKNQQLEQKIQELEQKIQELEWENQELKQ [4H3364-bN], the interaction score with 4H932-bN was -1.67; with 4H796-bN, 0.309; in the test with 4H949-bN it was -1.23; with 4H3364-bN, 0.858; with 4H56-bN, -0.197; in the test with O5-bA it was -0.987. The interaction score is -0.763 with 4H349-bN, -0.731 in the test with 4H3381-bN and 0.217 with 4H730-bN.

DEIAALKAENAALEAKIAALKAKNAALEG [4H687-AA]: the interaction score in the test with 4H717-AA is -0.487; with 4H687-AA it was -1.1; with 4H883-AA it was -1.77; in the test with 4H918-AA, -0.666; with 4H967-AA, 1.97; with 4H953-AA it was -1.39. In the test with 4H797-AA, the interaction score was -1.46.

Regarding DENKQLEKKNEELKREIWELEKEIEQLEQ [P9bH1], the interaction score with P9bH1 is -0.482.
